Measured values taken from the supplement of paper PMC12042874.
± gives the uncertainty stated by the source.

test: amyloid nucleation score (Sup35N fusion, yeast selection) (log enrichment); library NNK3; higher = more nucleation; inactive = no reads after selection
Summary of the method: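 Sup35N fusions to peptides of 20 random codons were expressed in psi-negative yeast, induced 24 hours with 100 μM copper sulfate, and grown 7 days at 30°C on medium lacking adenine and uracil. Input and output plasmid inserts were sequenced by Illumina. The nucleation score is the DiMSum log enrichment of output over input reads, centred on the mode score of non-aggregating sequences. Sequences with under 100 input reads were excluded.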

Substance | amyloid nucleation score
VGSLDVIVINQKFSVFVMSC | inactive
TSCQLWETIIKMLDHARTGA | inactive
CRQVRFALLNFLAAG | inactive
TCMSVNVFRGYIIAW | inactive
VGTFRGSEGPRFVLVV | -0.486 ± 1.9
VPFVGLLSLALAFYSIKNSN | 0.921 ± 0.23
GMAETRWGLRKIWKVAGARI | -0.85 ± 1.9
MRTLYFPKCMTRLKMHVSSI | inactive
LTTRGRNTRSEDMGEPGLWA | inactive
YDKLSYKLPLF | inactive
VSSAYLKCSFLKNLAVSLYG | inactive
SLLCKFIVRNPNSSLIRSAS | inactive
DALVYVLGSCMWIGASSTSA | -0.354 ± 1.1
CVTINVIFDNVVY | 2.3 ± 0.061
SMSPTKLYSSIMVNSWEWLF | inactive
MLEEGVHINSGLMIVWYIIM | inactive
GPVSYHMRCLYTGLSIPHLF | inactive
MWSVPLKSQAILYTFDCVSL | 0.174 ± 0.44
TDFMSFINVERMCVILYPFA | 1.36 ± 0.077
VWVFKTNFVFRVQLGHSLGC | 1.46 ± 0.094
WWVRQNVRWVLACVDFSTFS | inactive
WSFCGLYLNI | 1.62 ± 0.095
LPAMIGIWCILTH | inactive

Substance | amyloid nucleation score
SKAMLTVA | inactive
VRDQLRVTLVRSENGIHAHY | inactive
GADDVTNRRTVVVSTQALCL | inactive
WSKVSHPYSALYSIMDRYT | inactive
LRTSVFRVLVNSILVKNLIS | inactive
SICCGDSVVFTVSLPVAGSF | inactive
FSTQRLNG | inactive
LRWMFPLPRNVSHCSLA | inactive
DCWHLRQLWGVMSCQ | 0.48 ± 0.42
DLFCCCYTLS | 1.03 ± 0.2
GFSYMLVFSNGVYMLIRIRW | inactive
MAKTMM | inactive
NDSTHLRSRC | inactive
RLIIYSFARSQL | inactive
EHRLVDCDVWVR | 2.82 ± 0.077
NIRICWG | 0.795 ± 0.27
CQHGGCALQHHTYRCEVGAG | inactive
LCSGVHHFVRNTIVKGVCDG | inactive
MVGRGEQVM | inactive
YRFYSNNPTRCS | inactive
EADPYIPKSVFGVGFNGHVV | inactive
GCNGDRFRF | -0.255 ± 0.88
RHSLMRDYYNFLMLDCTE | inactive

Substance | amyloid nucleation score
HGVPYAIEASMLMFYLTFWR | inactive
DCGVVCSRNRNAEEEMLDSV | inactive
SKKYFVHFILVNNFGVGY | inactive
MICHDLRSFIM | inactive
LFHHNCWNSNLSKVYMPACN | 0.761 ± 0.1
CFDWYFDNDTRFIVGAMLVW | inactive
CSRYFRWYHVLAYCSVPNRM | inactive
HVMTHFG | inactive
LVCHFLDEDCLFACILQNMR | inactive
TEVFVHFTCEIGYIFLILFQ | inactive
TSNIHY | inactive
AYSYRGHGLGMDGAGPVCLI | inactive
FRRLSFMVVFGERKGVVSLG | inactive
PTIKDLDTSIFGYLLGSVGD | inactive
CYLSSTGVVYAGYVYI | inactive
EFRIKRNR | inactive
RHQDYLHADGLNMAISITRI | inactive
NNCTSTRSMVVGEYRKKGAL | -0.46 ± 0.84
TVLFEIYMNEVMNGFLICST | inactive
RVLYPVKVYRNDKMADWNN | inactive
RYTFVGT | -0.408 ± 0.68
CIRICNISFFL | 2.71 ± 0.075
PFHLRVMKIRLRLPVVHLKG | inactive

Substance | amyloid nucleation score
SVVAYFLLIRYGDYRYHLQM | inactive
FALCFKRQIGRVSRVVCHVY | inactive
SVPDCELVAYKSSLWCTHLT | inactive
YANQHSPEHQRLSSRLVGTN | inactive
VIVLNFALLRASLSAGFLMS | 0.405 ± 0.28
LHCTLSNSLSYLHDIQQLLH | inactive
LMGTSIPSKQADLGTEFSNF | inactive
VYLRSISFVRTRQMVWCLLP | inactive
LYMDYLQNVNLYGMFI | inactive
CVASGCTVKACFYSMREDRY | 1.53 ± 0.092
NITVHVNRMKFCCMYAESHD | inactive
VMVAMTFNWHDALILWDGMV | inactive
VHKYMGEVLHQYFPLMLYLF | 0.807 ± 0.1
ILVGNFSILWY | inactive
HHHSATLYFTFMSVTE | inactive
YTVGCSYMVWVVFNFFYFSE | 1 ± 0.14
LMRTDNSSKNGSASGGGMSG | inactive
VIICIAGGLPMRTH | 1.71 ± 0.06
VFFIAAFLSTCMR | inactive
GMPKSWYMPVRMMQASSSAF | inactive
VDLRSLSPGYIDFTVISPLL | -0.952 ± 0.83
PCRICINCCRRCIILLLF | inactive
VFCKNLNYALRMPSKWGLYT | inactive

Substance | amyloid nucleation score
LRFVHDVLDFGASMSLRRK | 0.606 ± 0.1
GVYMLLDVPYGTASTSAMGS | inactive
HKFFAYDGGDRKRGIFGGWL | 1.25 ± 0.1
KVRSARVRMHHNRYDKEMSG | inactive
RQSCGFILQWDKLCFSRDRT | 0.879 ± 0.25
LDRCNFISTILPQIRFSV | inactive
SPRTNNPTMHRSGW | inactive
RFEFMGFSYPCHLTWLLVGY | inactive
GLMLDFILYQWTWYKLSMDT | inactive
YKWSLTTRRTVRHLRED | inactive
WQTKIGYSGRLFDRTLGDAK | inactive
PLGVRQQWEGSQVDPCGLRA | inactive
NFDTDGTALRKLR | inactive
SWDHTVNKLGTPTVGSGSND | inactive
HWVLQYRCSARKRSHLRYSM | inactive
RSGFRLLIWYRKQMICLCNL | inactive
TDWYVIF | inactive
FSPFNAENSETVTCTGCSHC | inactive
WDLLTKLHVKIKFLDRGMMS | inactive
SLVWTDRNYVSTNGSSCVWL | inactive
MSVDGLHCRWPSWHVKILLD | inactive
LMSFCHPDPIDFSVTGLCCR | -0.208 ± 0.39
AANLGRSIPESSRKGIGFNF | inactive

Substance | amyloid nucleation score
TTLGHTPPVCFSDPWAQARA | inactive
SNDVCVC | inactive
VIAVSYNFTWFKTSIFN | 1.31 ± 0.11
EQLKTRNRKVWV | inactive
RCLEERH | inactive
MTGDPGQFNAGDRLM | inactive
AHVLVSFCFSFTRSVKFGLV | inactive
LIYDRHSWNHWSSQHVDRDG | inactive
VSHTIKAILFGFRRQDHLYF | inactive
GMHCFIEPLSRVFGSNCGNY | inactive
AYNSYELVRAL | inactive
LNMARDYFVFQSPADPGCLV | inactive
IVQLVIFLSRYDVLELCMHK | 0.07 ± 0.47
RRPLVWKFFQNLGTMN | inactive
NYRRGVRKPSFCL | inactive
GDEVHGFIVVQSREAFSRKL | inactive
FNGRLVLHHRTVI | inactive
GLVCWTG | inactive
SCNRSSSV | inactive
NTDPTQVFQASN | inactive
WYRHGIVEYDAIIWDESARR | inactive
NSVRLFKNFQWWAFSRHSRL | inactive
TYYTSRYL | inactive

Substance | amyloid nucleation score
GPFARNS | inactive
FLIPQGERSVLCMGCYFLYA | 1.85 ± 0.098
HITLRYLNL | 0.692 ± 0.12
YMLLSVDILSYMPMTVVAEQ | inactive
FCEGYFWCVI | inactive
FDVRDRSRIGLSMTITWMKI | inactive
FPGNLSLNGVIHMFLYDKLW | inactive
ASAYGSSLYSRFTVEYNSII | 0.223 ± 0.38
RIVSRWCDNLNHTDCECCVC | inactive
NLSSVSIVALLQRVPIYKYL | inactive
ELFSVNKCDLALNTCLTVPG | 2.6 ± 0.061
GCFYIFRIY | -0.222 ± 1.3
PRTSKFVAVAFKV | inactive
WSYREVHRRDLGLLSNGTCW | inactive
TSTSIVSYGTWFSGFVLNVS | 2.29 ± 0.076
YAIVGSRVVRLRSKNRRNLS | inactive
MDLYMTSWEFTVLSLEKMGR | inactive
GFYNFVFSCASGYRCTGVMG | -0.357 ± 0.59
CLRVLWLSQLTVSCDF | -0.354 ± 1.8
YKFSVTTL | inactive
